What was measured:
Experiment in all cases: SEC; E. coli-expressed and purified human HtrA1- to 4-PD/PDZ constructs, purified as homotrimers by size-exclusion chromatography; conditions not shown (SI Appendix)
[1] = target: human HtrA1-PD/PDZ (N domain-deleted HtrA1, protease domain and PDZ domain) (human)
[2] = target: human HtrA2-PD/PDZ (protease domain and PDZ domain) (human)
[3] = target: the molecule itself

Molecule | stoichiometry N [3] | other results
human HtrA1-PD/PDZ (N domain-deleted HtrA1, protease domain and PDZ domain) (domain or fragment) |  | stoichiometry N [1]: 3
human HtrA2-PD/PDZ (protease domain and PDZ domain) (domain or fragment) |  | stoichiometry N [2]: 3
human HtrA3-PD/PDZ (protease domain and PDZ domain) (domain or fragment) GLHQLSSPRYKFNFIADVVEKIAPAVVHIELFLRHPLFGRNVPLSSGSGFIMSEAGLIITNAHVVSSNSAAPGRQQLKVQLQNGDSYEATIKDIDKKSDIATIKIHPKKKLPVLLLGHSADLRPGEFVVAIGSPFALQNTVTTGIVSTAQREGRELGLRDSDMDYIQTDAIINYGNSGGPLVNLDGEVIGINTLKVTAGISFAIPSDRITRFLTEFQDKQIKDWKKRFIGIRMRTITPSLVDELKASNPDFPEVSSGIYVQEVAPNSPSQRGGIQDGDIIVKVNGRPLVDSSELQEAVLTESPLLLEVRRGNDDLLFSIAPEVVM | 3 | 
human HtrA4-PD/PDZ (protease domain and PDZ domain) (domain or fragment) TGTRSAGPLRRNYNFIAAVVEKVAPSVVHVQLWGRLLHGSRLVPVYSGSGFIVSEDGLIITNAHVVRNQQWIEVVLQNGARYEAVVKDIDLKLDLAVIKIESNAELPVLMLGRSSDLRAGEFVVALGSPFSLQNTATAGIVSTKQRGGKELGMKDSDMDYVQIDATINYGNSGGPLVNLDGDVIGVNSLRVTDGISFAIPSDRVRQFLAEYHEHQMKGKAFSNKKYLGLQMLSLTVPLSEELKMHYPDFPDVSSGVYVCKVVEGTAAQSSGLRDHDVIVNINGKPITTTTDVVKALDSDSLSMAVLRGKDNLLLTVIPETIN | 3 | 

— publication PMC7211935, “Development of a therapeutic anti-HtrA1 antibody and the identification of DKK3 as a pharmacodynamic biomarker in geographic atrophy” (Proceedings of the National Academy of Sciences of the …, 2020)
